From patent publication US20080207488A1, “Method for Detecting Peptides Comprising a Cross-B Structure” (priority 2005, published 2008)

Experiments:
tPA = target: T1, tPA (Homo sapiens, UniProt P00750); assay: Plasminogen-activation assay (tPA-mediated Plg to Pls, S-2251); assay type: biochemical
T1 construct: purchased Boehringer-Ingelheim (Actilyse, Alteplase)
Procedure: Plasmin (Pls) activity was assayed as described^7. Peptides and proteins that were tested for their stimulatory ability were regularly used at 100 μg ml^−1. […] Chromogenic substrate S-2251 (Chromogenix, Instrumentation Laboratory SpA, Milano, Italy) was used to measure Pls activity. Conversion of zymogen factor XII (#233490, Calbiochem, EMD Biosciences, Inc., San Diego, Calif.) to proteolytically active factor XII (factor XIIa) was assayed by measurement of the conversion of chromogenic substrate Chromozym-PK (Roche Diagnostics, Almere, The Netherlands) by kallikrein. Chromozym-PK was used at a concentration of 0.3 mM. Factor XII, human plasma prekallikrein (#529583, Calbiochem) and human plasma cofactor high-molecular weight kininogen (#422686, Calbiochem) were used at concentrations of 1 μg ml^−1. […] Assays were performed using microtiter plates (Costar, Cambridge, Mass., USA). Peptides and proteins were tested for their ability to activate factor XII. 150 μg ml^−1 kaolin, an established activator of factor XII was used as positive control and solvent (H2O) as negative control. The conversion of Chromozym-PK was recorded kinetically at 37° C. for at least 60 minutes. Assays were done in duplicate. […] Alternatively, chromogenic substrate S-2222 (Chromogenix) was used to follow the activity of factor XII itself. With S-2222, activation of factor XII in plasma was measured, using 60% v/v plasma, diluted with substrate and H2O with or without potential cofactor. Furthermore, auto-activation of factor XII was measured by incubating 53 μg ml^−1 purified factor XII in 50 mM Tris-HCl buffer pH 7.5 with 1 mM EDTA and 0.001% v/v Triton-X100, with S-2222 and H2O with or without potential cofactor.
(§1) Formulated protein therapeutics were obtained from the local hospital pharmacy and were used as supplied by the manufacturers. […] Lyophilized therapeutics were dissolved according to the manufacturers recommendations. […] Other protein therapeutics were only kept at 4° C., and assayed for the presence of cross-β structure conformation at shown time points. Enhancement in fluorescence of ThT and Congo red was measured with all formulated protein therapeutics. For this purpose, proteins were diluted to the indicated concentrations. […] Zinc-insulin was diluted tenfold in the activation assay, GH was diluted to a final concentration of 500 μg ml^−1. Activation of factor XII and prekallikrein by the therapeutics was tested in the chromogenic factor XII assay (see above). […] After coating, plates were blocked with Blocking Reagent (Roche Diagnostics, Almere, The Netherlands).
Purification of β2-glycoprotein I (β2GPI) was performed according to established methods^11,12. Recombinant human β2GPI was made using insect cells and purified as described^11. Plasma derived β2GPI as used in a factor XII ELISA, the chromogenic Plg-activation assay and in the anti-phospholipid syndrome antibody ELISA (see below), was purified from fresh human plasma as described^12.
(§2) To prepare structurally altered ovalbumin (OVA) with amyloid cross-β structure conformation, purified OVA (Sigma, A-7641, lot 071k7094) was heated to 85° C. One mg ml^−1 OVA in 67 mM NaPi buffer pH 7.0, 100 mM NaCl, was heated for two cycles in PCR cups in a PTC-200 thermal cycler (MJ Research, Inc., Waltham, Mass., USA). In each cycle, OVA was heated from 30 to 85° C. at a rate of 5° C./min. Native OVA (nOVA) and heat-denatured OVA (dOVA) were tested in the ThT fluorescence assay and in the Plg-activation assay. In the fluorescence assay and in the Plg-activation assay, 25 and 100 μg ml^−1 nOVA and dOVA were tested, respectively. TEM images of nOVA and dOVA were taken to check for the presence of large aggregates. […] MSA (#126674, Calbiochem) was dissolved in 8 M urea, 100 mM Tris-HCl pH 8.2, at 10 mg ml^−1 final concentration.

[1] = target: T2, human fibronectin finger 4,5 (Fn F4,5) fragment (Homo sapiens, UniProt P02751); assay: ELISA, binding of fibronectin F4,5 to coated (mis)folded proteins; conditions: coated protein; for affinity of fibronectin F4,5 (detection anti-FLAG HRP): FIG. 7D-H
T2 construct: human fibronectin finger 4,5 (Fn F4,5) fragment; made in house; host or cells: HEK293E cells, transient transfection, protein purified from the medium
T2 sequence (P02751 182-276 limits assumed): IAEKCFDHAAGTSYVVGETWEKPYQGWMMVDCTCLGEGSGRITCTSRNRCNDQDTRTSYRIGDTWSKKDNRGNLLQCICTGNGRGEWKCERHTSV
Procedure: The plates were blocked using Blocking reagent (Roche 1112589). A dilution series of the protein of interest was applied to the coated proteins and wells were subsequently washed using TBS-T (50 mM Tris pH 7.3, 150 mM NaCl and 0.1% Tween20). Bound protein is detected by the FLAG-tag using 1:3000 anti-FLAG-HRP (Sigma A-8592) in PBS-T, or by 1:1000 Ni-NTA-HRP (Qiagen 34530) in PBS-T. The HRP reaction Is performed using the TMB substrate (Biosource 4501103 or Tebu Bio 101TMB100-500), stopped using 10% H2SO4 and absorbance was measured at 450 nm.

[2] = Thioflavin T fluorescence; assay type: physicochemical
Procedure: Fluorescence of ThT-protein/peptide adducts was measured as follows. […] Fluorescence was measured at 485 nm upon excitation at 435 nm. Background signals from buffer, buffer with ThT and protein/peptide solution without ThT were subtracted from corresponding measurements with protein solution incubated with ThT. […] Fluorescence was measured in triplicate on a Hitachi F-4500 fluorescence spectrophotometer (Ltd., Tokyo, Japan).
as §1
as §2, with “concentration. Dithiothreitol (DTT) was added to a final concentration of 10 mM. Air was replaced by N2 and the solution was incubated for 2 h at room temperature. Then, the solution was transferred to ice and iodoacetamide was added from a 1 M stock to a final concentration of 20 mM. […] Alkyl-MSA was dialyzed against H2O before use. […] In the ThT-fluorescence assay 25 μg ml^−1 nMSA and alkyl-MSA were tested, and in the Plg-activation assay 100 μg ml^−1 was tested. The presence of aggregates or fibrils was analyzed using TEM. […]” for “concentration.”
Protein therapeutics were obtained from the local hospital pharmacy and analyzed within the expiry limits as stated by the manufacturers.

T1 sequence (P00750 36-562): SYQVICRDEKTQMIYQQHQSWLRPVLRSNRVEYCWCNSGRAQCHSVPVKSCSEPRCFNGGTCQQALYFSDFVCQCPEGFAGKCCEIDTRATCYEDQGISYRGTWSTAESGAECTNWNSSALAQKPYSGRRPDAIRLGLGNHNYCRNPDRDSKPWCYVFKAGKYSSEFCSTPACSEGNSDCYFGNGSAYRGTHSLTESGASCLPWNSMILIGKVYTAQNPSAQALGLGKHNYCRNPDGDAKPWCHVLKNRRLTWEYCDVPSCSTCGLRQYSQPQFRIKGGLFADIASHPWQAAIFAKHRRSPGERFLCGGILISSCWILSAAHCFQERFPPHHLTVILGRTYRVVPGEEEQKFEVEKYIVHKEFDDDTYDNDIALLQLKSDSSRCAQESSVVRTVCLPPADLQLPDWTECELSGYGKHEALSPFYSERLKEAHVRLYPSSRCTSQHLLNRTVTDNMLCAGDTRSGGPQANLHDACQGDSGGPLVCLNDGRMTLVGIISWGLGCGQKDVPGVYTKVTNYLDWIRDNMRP

Row | Substance | activation of tPA and Plg by component alone (tPA; FIG. 2G, without contacting) | affinity of fibronectin F4,5 (detection anti-FLAG HRP) [1] | ThT fluorescence after incubation with kaolin ([2]; compared to buffer) | binding of fibronectin F4-5 (detection Ni-NTA-HRP) ([1]; FIG. 7A) | Pls activity (tPA activation) (tPA; after storage at 65° C.) | tPA activation by protein therapeutics (tPA; stored at 4° C., GH 500 μg ml^−1, zinc-insulin diluted tenfold) | ThT fluorescence enhancement ([2]; after storage at 65° C.) | Fluorescence (a.u. +/− SD) ThT ([2]; marketed biopharmaceutical within expiry limits, five μL tested) | enhancement of ThT fluorescence ([2]; therapeutics stored at 4° C.)
1 | lysozyme: chicken egg-white lysozyme | do not activate tPA and Plg | high affinity | only in a small increase in ThT fluorescence | – | – | – | – | – | –
2 | albumin-AGE: advanced glycation end-product modified bovine serum albumin | – | High affinities | – | high affinity binding | – | – | – | – | –
3 | Abciximab: abciximab, an inhibitor of blood platelet aggregation (ReoPro, Centocor) | – | – | – | – | induced Pls activity | do not have ThT fluorescence enhancing or tPA activating properties | enhanced ThT fluorescence | 8 +/− 8 a.u. | do not have ThT fluorescence enhancing or tPA activating properties
